Reference: publication doi:10.1101/772699 (bioRxiv, 2019)

Columns and labels:
[1] = molecular target: SAP54 (purified, secreted part) (Aster Yellows-Witches' Broom phytoplasma (Candidatus Phytoplasma asteris strain AY-WB)); experiment: dynamic light scattering
dynamic light scattering = molecular target: the molecule itself; experiment: dynamic light scattering

SAP54 (purified, secreted part) (natural protein)
stoichiometry N [1]: 2

B1: K-domain of SEP3 (SEP3^75-178) (domain or fragment, A. thaliana, UniProt O22456-1 75-178, looked up)
chain: YGAPEPNVPSREALAVELSSQQEYLKLKERYDALQRTQRNLLGEDLGPLSTKELESLERQLDSSLKQIRALRTQFMLDQLNDLQSKERMLTETNKTLRLRLADG
stoichiometry N (dynamic light scattering): 4
